B1: TREM2 (triggering receptor expressed on myeloid cells 2) with a Myc-tag at the C terminus, wild type [human] / presenilin 1 (PS1), wild type [not stated] (parent)
chain 1: HNTTVFQGVAGQSLQVSCPYDSMKHWGRRKAWCRQLGEKGPCQRVVSTHNLWLLSFLRRWNGSTAITDDTLGGTLTITLRNLQPHDAGLYQCQSLHGSEADTLRKVLVEVLADPLDHRDAGDLWFPGESESFEDAHVEHSISRSLLEGEIPFPPTSILLLLACIFLIKILAASALWAAAWHGQKPGTHPPSELDCGHDPGYQLQTLPGLRDT
chain 2: not shown

Variants of: B1
Test: co-immunoprecipitation with PS1 antibody Ab14, immunoblot band quantification
Conditions: with presenilin 1 (PS1), HEK293 cells stably expressing Myc-tagged TREM2, transfected with PS1, n=3, read off a plot

Row | ratio to parent (arbitrary unit) | Variant
1 | 1.2 | chain 1 T78K
2 | 1.2 | chain 1 R29H
3 | 0.68 | chain 1 T48M
